Measured values published in paper PMC5913134, “The IL-33-PIN1-IRAK-M axis is critical for type 2 immunity in IL-33-induced allergic airway inflammation” (Nature Communications, 2018).

Target: PIN1 (GST-PIN1, GFP-PIN1, 15N-PIN1-WW) (UniProt Q13526)
Assay: co-IP with anti-GFP, blot
Details: reference: wild type; sites S110

In the case of “IRAK-M (transfected constructs and synthetic peptides) (from UniProt Q9Y616) S110A”, the “binding against the reference” value is reported as “lost”.
